Laboratory results: publication PMC9482650, “Quantitative fragmentomics allow affinity mapping of interactomes” (Nature Communications, 2022)

T1: MPP7, Q5T2T1
T1 sequence (Q5T2T1 134-230, limits assumed, looked up): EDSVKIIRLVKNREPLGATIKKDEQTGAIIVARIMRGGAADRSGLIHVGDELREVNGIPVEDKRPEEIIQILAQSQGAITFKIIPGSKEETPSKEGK

T2: DLG3_2, Q92796
T2 sequence (Q92796 221-321, limits assumed, looked up): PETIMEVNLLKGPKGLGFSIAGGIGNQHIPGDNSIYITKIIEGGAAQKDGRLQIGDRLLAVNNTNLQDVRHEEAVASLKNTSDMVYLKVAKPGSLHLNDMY

T3: GRIP1_4, Q9Y3R0
T3 sequence (Q9Y3R0 467-571, limits assumed, looked up): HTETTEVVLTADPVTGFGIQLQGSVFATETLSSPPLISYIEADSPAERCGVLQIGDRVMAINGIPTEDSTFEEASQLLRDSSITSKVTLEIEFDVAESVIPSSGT

T4: FRMPD1, Q5SYB0
T4 sequence (Q5SYB0 52-145, limits assumed, looked up): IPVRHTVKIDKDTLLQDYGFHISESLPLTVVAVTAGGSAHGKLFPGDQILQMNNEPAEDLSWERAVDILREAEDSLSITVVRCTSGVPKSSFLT

T5: CARD11, Q9BXL7
T5 sequence (Q9BXL7 662-765, limits assumed, looked up): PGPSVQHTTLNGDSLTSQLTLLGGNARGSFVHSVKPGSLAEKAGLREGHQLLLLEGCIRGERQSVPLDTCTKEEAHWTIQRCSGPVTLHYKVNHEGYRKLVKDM

T6: RAPGEF6, Q8TEU7
T6 sequence (Q8TEU7 525-625, limits assumed, looked up): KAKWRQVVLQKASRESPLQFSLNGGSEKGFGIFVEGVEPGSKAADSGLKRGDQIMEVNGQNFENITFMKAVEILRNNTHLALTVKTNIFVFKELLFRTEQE

T7: MPP6, Q9NZW5
T7 sequence (Q9NZW5 125-219, limits assumed, looked up): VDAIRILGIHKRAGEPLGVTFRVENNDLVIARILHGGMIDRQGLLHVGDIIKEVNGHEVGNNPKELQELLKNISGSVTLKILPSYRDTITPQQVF

T8: LIN7A, O14910
T8 sequence (O14910 103-200, limits assumed, looked up): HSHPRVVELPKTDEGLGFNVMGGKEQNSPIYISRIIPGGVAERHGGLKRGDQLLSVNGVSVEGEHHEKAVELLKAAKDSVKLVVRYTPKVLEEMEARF

T9: SNTG1, Q9NSN8
T9 sequence (Q9NSN8 52-150, limits assumed, looked up): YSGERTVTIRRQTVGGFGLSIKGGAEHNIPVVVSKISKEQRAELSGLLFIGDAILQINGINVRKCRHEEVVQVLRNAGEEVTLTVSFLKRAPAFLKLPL


What was measured:
Assay in all cases: holdup assay
Set-up in all cases: key: below the threshold = too weak to quantify, mostly under pKd 3.1 to 4
Details in all cases: plain residues with an end cap or a label only (N-terminal biotin on a linker: ado-ado)
DLG1_2, Q12959 = target: DLG1_2, Q12959
GRIP2_5, Q9C0E4 = target: GRIP2_5, Q9C0E4
MPP7, Q5T2T1 = target: T1, MPP7, Q5T2T1
GRIP2_6, Q9C0E4 = target: GRIP2_6, Q9C0E4
LNX1_3, Q8TBB1 = target: LNX1_3, Q8TBB1
HTRA2, O43464 = target: HTRA2, O43464
DLG3_2, Q92796 = target: T2, DLG3_2, Q92796
AHNAK1, Q09666 = target: AHNAK1, Q09666
LNX1_1, Q8TBB1 = target: LNX1_1, Q8TBB1
MAST1, Q9Y2H9 = target: MAST1, Q9Y2H9
GRIP1_4, Q9Y3R0 = target: T3, GRIP1_4, Q9Y3R0
FRMPD1, Q5SYB0 = target: T4, FRMPD1, Q5SYB0
LDB3, O75112 = target: LDB3, O75112
LIMK2, P53671 = target: LIMK2, P53671
Inadl_9, Q8NI35 = target: Inadl_9, Q8NI35
MAGI1_2, Q96QZ7 = target: MAGI1_2, Q96QZ7
HTRA1, Q92743 = target: HTRA1, Q92743
GRIP2_4, Q9C0E4 = target: GRIP2_4, Q9C0E4
CARD11, Q9BXL7 = target: T5, CARD11, Q9BXL7
FRMPD2_3, Q68DX3 = target: FRMPD2_3, Q68DX3
IL16_4, Q14005 = target: IL16_4, Q14005
RAPGEF6, Q8TEU7 = target: T6, RAPGEF6, Q8TEU7
PDZRN4_1, Q6ZMN7 = target: PDZRN4_1, Q6ZMN7
MPP6, Q9NZW5 = target: T7, MPP6, Q9NZW5
MAGI1_1, Q96QZ7 = target: MAGI1_1, Q96QZ7
IL16_3, Q14005 = target: IL16_3, Q14005
LIN7A, O14910 = target: T8, LIN7A, O14910
SNTG1, Q9NSN8 = target: T9, SNTG1, Q9NSN8
NHERF4_4, Q86UT5 = target: NHERF4_4, Q86UT5
Sequence of NHERF4_4, Q86UT5 (Q86UT5 464-550): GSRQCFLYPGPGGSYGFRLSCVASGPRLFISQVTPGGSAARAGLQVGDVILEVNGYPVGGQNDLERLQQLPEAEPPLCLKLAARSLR

Sequence of IL16_4, Q14005 (Q14005 1229-1329): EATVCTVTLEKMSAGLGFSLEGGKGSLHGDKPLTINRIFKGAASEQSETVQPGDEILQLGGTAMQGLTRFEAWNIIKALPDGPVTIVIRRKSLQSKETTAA
Sequence of LIMK2, P53671 (P53671 143-248): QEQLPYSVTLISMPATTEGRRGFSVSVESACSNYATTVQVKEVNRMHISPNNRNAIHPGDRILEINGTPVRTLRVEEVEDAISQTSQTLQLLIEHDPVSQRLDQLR
Sequence of MAGI1_1, Q96QZ7 (Q96QZ7 1-106): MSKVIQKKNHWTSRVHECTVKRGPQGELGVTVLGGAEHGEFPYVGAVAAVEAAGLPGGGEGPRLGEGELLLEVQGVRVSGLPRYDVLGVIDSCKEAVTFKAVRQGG
Sequence of IL16_3, Q14005 (Q14005 1107-1207): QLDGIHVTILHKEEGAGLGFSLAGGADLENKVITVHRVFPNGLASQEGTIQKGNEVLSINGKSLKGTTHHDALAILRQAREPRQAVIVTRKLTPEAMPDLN
Sequence of MAST1, Q9Y2H9 (Q9Y2H9 962-1065): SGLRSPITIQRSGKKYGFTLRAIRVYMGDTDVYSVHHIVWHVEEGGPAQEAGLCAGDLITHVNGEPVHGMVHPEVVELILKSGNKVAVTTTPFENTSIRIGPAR
Sequence of LDB3, O75112 (O75112 1-94): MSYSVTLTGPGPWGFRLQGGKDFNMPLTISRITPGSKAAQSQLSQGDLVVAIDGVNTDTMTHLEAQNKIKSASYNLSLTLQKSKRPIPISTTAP
Sequence of DLG1_2, Q12959 (Q12959 314-412): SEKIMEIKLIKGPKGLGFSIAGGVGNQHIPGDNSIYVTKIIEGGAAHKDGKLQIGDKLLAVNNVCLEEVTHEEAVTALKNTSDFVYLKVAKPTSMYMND
Sequence of AHNAK1, Q09666 (Q09666 4-100): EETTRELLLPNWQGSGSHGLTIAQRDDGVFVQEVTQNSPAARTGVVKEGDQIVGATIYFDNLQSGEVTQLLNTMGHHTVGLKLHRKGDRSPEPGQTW
Sequence of GRIP2_6, Q9C0E4 (Q9C0E4 648-740): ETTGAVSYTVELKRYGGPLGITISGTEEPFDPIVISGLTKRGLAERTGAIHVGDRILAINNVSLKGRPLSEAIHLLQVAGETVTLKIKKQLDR
Sequence of MAGI1_2, Q96QZ7 (Q96QZ7 456-580): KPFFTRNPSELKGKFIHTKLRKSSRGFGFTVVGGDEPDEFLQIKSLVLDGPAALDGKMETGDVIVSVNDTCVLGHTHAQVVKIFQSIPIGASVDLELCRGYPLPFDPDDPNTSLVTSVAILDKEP
Sequence of Inadl_9, Q8NI35 (Q8NI35 1530-1615): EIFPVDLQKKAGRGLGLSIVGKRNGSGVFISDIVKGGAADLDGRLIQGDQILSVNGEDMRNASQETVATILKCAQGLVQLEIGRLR
Sequence of GRIP2_4, Q9C0E4 (Q9C0E4 446-548): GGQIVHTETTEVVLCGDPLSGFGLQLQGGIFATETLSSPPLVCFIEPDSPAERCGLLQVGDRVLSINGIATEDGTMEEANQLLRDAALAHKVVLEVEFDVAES
Sequence of GRIP2_5, Q9C0E4 (Q9C0E4 544-642): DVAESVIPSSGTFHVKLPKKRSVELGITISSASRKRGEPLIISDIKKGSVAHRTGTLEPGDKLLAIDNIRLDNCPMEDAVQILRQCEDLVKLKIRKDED
Sequence of HTRA1, Q92743 (Q92743 360-477): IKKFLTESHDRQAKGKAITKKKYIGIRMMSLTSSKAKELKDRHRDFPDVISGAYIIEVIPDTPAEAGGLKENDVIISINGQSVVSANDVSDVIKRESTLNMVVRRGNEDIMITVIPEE
Sequence of FRMPD2_3, Q68DX3 (Q68DX3 1073-1166): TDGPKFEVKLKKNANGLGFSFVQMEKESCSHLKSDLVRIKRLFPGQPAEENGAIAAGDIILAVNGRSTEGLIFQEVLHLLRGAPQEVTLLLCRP
Sequence of LNX1_1, Q8TBB1 (Q8TBB1 261-371): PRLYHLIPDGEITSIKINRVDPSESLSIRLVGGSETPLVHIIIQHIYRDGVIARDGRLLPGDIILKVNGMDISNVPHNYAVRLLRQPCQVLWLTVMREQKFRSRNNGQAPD
Sequence of LNX1_3, Q8TBB1 (Q8TBB1 500-596): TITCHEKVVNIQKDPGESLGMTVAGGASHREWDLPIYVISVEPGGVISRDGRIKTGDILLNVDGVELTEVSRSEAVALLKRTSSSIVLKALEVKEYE
Sequence of HTRA2, O43464 (O43464 355-458): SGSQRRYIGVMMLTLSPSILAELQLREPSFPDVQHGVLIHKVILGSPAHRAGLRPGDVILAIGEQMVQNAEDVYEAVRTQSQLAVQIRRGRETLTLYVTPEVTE
Sequence of PDZRN4_1, Q6ZMN7 (Q6ZMN7 213-318): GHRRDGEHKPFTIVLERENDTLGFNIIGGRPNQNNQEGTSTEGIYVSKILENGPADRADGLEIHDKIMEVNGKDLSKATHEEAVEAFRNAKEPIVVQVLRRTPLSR

pKd (DLG1_2, Q12959)	pKd (GRIP2_5, Q9C0E4)	pKd (MPP7, Q5T2T1)	pKd (GRIP2_6, Q9C0E4)	pKd (LNX1_3, Q8TBB1)	pKd (HTRA2, O43464)	pKd (DLG3_2, Q92796)	pKd (AHNAK1, Q09666)	pKd (LNX1_1, Q8TBB1)	pKd (MAST1, Q9Y2H9)	pKd (GRIP1_4, Q9Y3R0)	pKd (FRMPD1, Q5SYB0)	pKd (LDB3, O75112)	pKd (LIMK2, P53671)	pKd (Inadl_9, Q8NI35)	pKd (MAGI1_2, Q96QZ7)	pKd (HTRA1, Q92743)	pKd (GRIP2_4, Q9C0E4)	pKd (CARD11, Q9BXL7)	pKd (FRMPD2_3, Q68DX3)	Binder	other results
4.89	below the threshold	below the threshold	below the threshold	below the threshold	below the threshold	4.74	below the threshold	4.12	3.9	below the threshold	below the threshold	below the threshold	below the threshold	below the threshold	4.24	4.62	below the threshold	below the threshold	3.56	TACCHSETVV [TGFA, P01135]	pKd (IL16_4, Q14005): below the threshold; pKd (RAPGEF6, Q8TEU7): below the threshold; pKd (PDZRN4_1, Q6ZMN7): 3.67; pKd (MPP6, Q9NZW5): below the threshold; pKd (MAGI1_1, Q96QZ7): below the threshold; pKd (IL16_3, Q14005): below the threshold; pKd (LIN7A, O14910): 3.51; pKd (SNTG1, Q9NSN8): 4.43; pKd (NHERF4_4, Q86UT5): below the threshold
below the threshold	below the threshold	below the threshold	below the threshold	below the threshold	below the threshold	below the threshold	below the threshold	below the threshold	below the threshold	below the threshold	below the threshold	below the threshold	below the threshold	below the threshold	below the threshold	below the threshold	below the threshold	below the threshold	below the threshold	TSSMRGMDAV [RSRC2, Q7L4I2]	pKd (IL16_4, Q14005): below the threshold; pKd (RAPGEF6, Q8TEU7): below the threshold; pKd (PDZRN4_1, Q6ZMN7): below the threshold; pKd (MPP6, Q9NZW5): 3.79; pKd (MAGI1_1, Q96QZ7): below the threshold; pKd (IL16_3, Q14005): below the threshold; pKd (LIN7A, O14910): below the threshold; pKd (SNTG1, Q9NSN8): below the threshold; pKd (NHERF4_4, Q86UT5): 3.82

Continued, binder first:

Binder	pKd (DLG1_2, Q12959)	pKd (GRIP2_5, Q9C0E4)	pKd (MPP7, Q5T2T1)	pKd (GRIP2_6, Q9C0E4)	pKd (LNX1_3, Q8TBB1)	pKd (HTRA2, O43464)	pKd (DLG3_2, Q92796)	pKd (AHNAK1, Q09666)	pKd (LNX1_1, Q8TBB1)	pKd (MAST1, Q9Y2H9)	pKd (GRIP1_4, Q9Y3R0)	pKd (FRMPD1, Q5SYB0)	pKd (LDB3, O75112)	pKd (LIMK2, P53671)	pKd (Inadl_9, Q8NI35)	pKd (MAGI1_2, Q96QZ7)	pKd (HTRA1, Q92743)	pKd (GRIP2_4, Q9C0E4)	pKd (CARD11, Q9BXL7)	pKd (FRMPD2_3, Q68DX3)	other results
HSGYRLNDYV [CLDN14, O95500]	3.77	below the threshold	below the threshold	below the threshold	below the threshold	3.74	below the threshold	below the threshold	below the threshold	below the threshold	below the threshold	below the threshold	below the threshold	below the threshold	3.58	below the threshold	4.34	below the threshold	below the threshold	below the threshold	pKd (IL16_4, Q14005): below the threshold; pKd (RAPGEF6, Q8TEU7): below the threshold; pKd (PDZRN4_1, Q6ZMN7): below the threshold; pKd (MPP6, Q9NZW5): 3.9; pKd (MAGI1_1, Q96QZ7): below the threshold; pKd (IL16_3, Q14005): below the threshold; pKd (LIN7A, O14910): below the threshold; pKd (SNTG1, Q9NSN8): below the threshold; pKd (NHERF4_4, Q86UT5): 3.94
QSPANIYYKV [EFNB1, P52799]	below the threshold	below the threshold	3.61	4.4	4.38	4.18	below the threshold	below the threshold	below the threshold	3.93	below the threshold	below the threshold	below the threshold	below the threshold	below the threshold	below the threshold	4.37	below the threshold	below the threshold	below the threshold	pKd (IL16_4, Q14005): below the threshold; pKd (RAPGEF6, Q8TEU7): below the threshold; pKd (PDZRN4_1, Q6ZMN7): below the threshold; pKd (MPP6, Q9NZW5): below the threshold; pKd (MAGI1_1, Q96QZ7): below the threshold; pKd (IL16_3, Q14005): below the threshold; pKd (LIN7A, O14910): below the threshold; pKd (SNTG1, Q9NSN8): below the threshold; pKd (NHERF4_4, Q86UT5): below the threshold
TLPRKRMSSI [GPRC6A, Q5T6X5]	3.76	below the threshold	below the threshold	below the threshold	below the threshold	below the threshold	4.23	below the threshold	3.78	3.6	below the threshold	below the threshold	below the threshold	below the threshold	below the threshold	below the threshold	below the threshold	below the threshold	below the threshold	below the threshold	pKd (IL16_4, Q14005): below the threshold; pKd (RAPGEF6, Q8TEU7): below the threshold; pKd (PDZRN4_1, Q6ZMN7): below the threshold; pKd (MPP6, Q9NZW5): below the threshold; pKd (MAGI1_1, Q96QZ7): below the threshold; pKd (IL16_3, Q14005): below the threshold; pKd (LIN7A, O14910): below the threshold; pKd (SNTG1, Q9NSN8): below the threshold; pKd (NHERF4_4, Q86UT5): 3.88
